# Data: the supplement of paper PMC10567573
# B1: PKD2L1 (parent)
# chain: SGPEAARAGGWVSGEEFYMLTRRV
# B2: SMTNL2 (parent)
# chain: QKNFELAFTMAENLANCERLIEVE
# Variants of: B1
# Assay: protein stability index of a GFP-peptide fusion (GPS, HEK-293T) (PSI 1-6); higher = more stable
# Conditions: c terminus: a fixed tail appended
# 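Note: lentivirally expressed fusions sorted by FACS into six bins by GFP to DsRed ratio, PSI derived from sequencing read proportions per bin multiplied by bin number.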
row,Variant,protein stability index
1,SGPEAARAGEWVSGEEFYMLTRRV [G10E],3.31
2,SGPEAARAGNWVSGEEFYMLTRRV [G10N],2.55
3,SGPEAARAGCWVSGEEFYMLTRRV [G10C],1.82
4,SGPEAARAGIWVSGEEFYMLTRRV [G10I],3.36
5,SGPEAARAGAWVSGEEFYMLTRRV [G10A],2.22
6,SGPEAARAGKWVSGEEFYMLTRRV [G10K],2.64
7,SGPEAARAGHWVSGEEFYMLTRRV [G10H],3.21
8,SGPEAARTGGWVSGEEFYMLTRRV [A8T],2.24
9,SGPEAARNGGWVSGEEFYMLTRRV [A8N],2.18
10,SGPEAARWGGWVSGEEFYMLTRRV [A8W],2.71
11,SGPEAARSGGWVSGEEFYMLTRRV [A8S],2.31
12,SGPEAARRGGWVSGEEFYMLTRRV [A8R],2.03
13,SGPEAARQGGWVSGEEFYMLTRRV [A8Q],2.65
14,SGPEAARMGGWVSGEEFYMLTRRV [A8M],1.8
15,SGPEAARLGGWVSGEEFYMLTRRV [A8L],2.02
16,SGPEAAREGGWVSGEEFYMLTRRV [A8E],3.22
17,SGPEAARGGGWVSGEEFYMLTRRV [A8G],2.15
18,SGPEAARKGGWVSGEEFYMLTRRV [A8K],2.13
19,SGPEAARYGGWVSGEEFYMLTRRV [A8Y],1.76
20,SGPEAARPGGWVSGEEFYMLTRRV [A8P],2.05
21,SGPEAARCGGWVSGEEFYMLTRRV [A8C],1.97
22,SGPEAARVGGWVSGEEFYMLTRRV [A8V],2.25
23,SGPEAARDGGWVSGEEFYMLTRRV [A8D],2.43
24,SGPEAARHGGWVSGEEFYMLTRRV [A8H],1.81
25,SGPEAARIGGWVSGEEFYMLTRRV [A8I],1.76
26,SGPEAARFGGWVSGEEFYMLTRRV [A8F],1.7

row,Variant,protein stability index
1,SGPEAAFAGGWVSGEEFYMLTRRV [R7F],2.9
2,SGPEAAVAGGWVSGEEFYMLTRRV [R7V],2.56
3,SGPEAAGAGGWVSGEEFYMLTRRV [R7G],2.24
4,SGPEAAPAGGWVSGEEFYMLTRRV [R7P],2.68
5,SGPEAASAGGWVSGEEFYMLTRRV [R7S],2.42
6,SGPEAAMAGGWVSGEEFYMLTRRV [R7M],2.64
7,SGPEAAQAGGWVSGEEFYMLTRRV [R7Q],3.04
8,SGPEAAYAGGWVSGEEFYMLTRRV [R7Y],2.31
9,SGPEAALAGGWVSGEEFYMLTRRV [R7L],2.58
10,SGPEAATAGGWVSGEEFYMLTRRV [R7T],2.44
11,SGPEAAKAGGWVSGEEFYMLTRRV [R7K],2.72
12,SGPEAAWAGGWVSGEEFYMLTRRV [R7W],2.6
13,SGPEAAEAGGWVSGEEFYMLTRRV [R7E],2.75
14,SGPEAANAGGWVSGEEFYMLTRRV [R7N],2.44
15,SGPEAAIAGGWVSGEEFYMLTRRV [R7I],2.11
16,SDPEAARAGGWVSGEEFYMLTRRV [G2D],2.24
17,SKPEAARAGGWVSGEEFYMLTRRV [G2K],1.8
18,SFPEAARAGGWVSGEEFYMLTRRV [G2F],1.83
19,SYPEAARAGGWVSGEEFYMLTRRV [G2Y],1.72
20,SWPEAARAGGWVSGEEFYMLTRRV [G2W],2.91
21,SPPEAARAGGWVSGEEFYMLTRRV [G2P],2.08
22,SNPEAARAGGWVSGEEFYMLTRRV [G2N],2.93
23,SQPEAARAGGWVSGEEFYMLTRRV [G2Q],2.64
24,STPEAARAGGWVSGEEFYMLTRRV [G2T],2.94
25,SAPEAARAGGWVSGEEFYMLTRRV [G2A],2
26,SCPEAARAGGWVSGEEFYMLTRRV [G2C],1.67

row,Variant,protein stability index
1,SVPEAARAGGWVSGEEFYMLTRRV [G2V],2.27
2,SEPEAARAGGWVSGEEFYMLTRRV [G2E],3.1
3,SHPEAARAGGWVSGEEFYMLTRRV [G2H],2.17
4,SRPEAARAGGWVSGEEFYMLTRRV [G2R],2.24
5,SSPEAARAGGWVSGEEFYMLTRRV [G2S],2.19
6,SMPEAARAGGWVSGEEFYMLTRRV [G2M],3.57
7,SGPEAYRAGGWVSGEEFYMLTRRV [A6Y],2.4
8,SGPEAKRAGGWVSGEEFYMLTRRV [A6K],2.12
9,SGPEAQRAGGWVSGEEFYMLTRRV [A6Q],2.13
10,SGPEAHRAGGWVSGEEFYMLTRRV [A6H],2.24
11,SGPEAFRAGGWVSGEEFYMLTRRV [A6F],1.68
12,SGPEALRAGGWVSGEEFYMLTRRV [A6L],3.07
13,SGPEAIRAGGWVSGEEFYMLTRRV [A6I],2.02
14,SGPEAERAGGWVSGEEFYMLTRRV [A6E],2.65
15,SGPEADRAGGWVSGEEFYMLTRRV [A6D],2.35
16,SGPEAWRAGGWVSGEEFYMLTRRV [A6W],1.06
17,SGPEAPRAGGWVSGEEFYMLTRRV [A6P],2.21
18,SGPEAGRAGGWVSGEEFYMLTRRV [A6G],3.16
19,SGPEACRAGGWVSGEEFYMLTRRV [A6C],2.31
20,SGPEASRAGGWVSGEEFYMLTRRV [A6S],3.01
21,SGPEATRAGGWVSGEEFYMLTRRV [A6T],2.86
22,SGPEAVRAGGWVSGEEFYMLTRRV [A6V],3.13
23,SGPEANRAGGWVSGEEFYMLTRRV [A6N],2.85
24,SGPEARRAGGWVSGEEFYMLTRRV [A6R],2.43
25,SGPEAMRAGGWVSGEEFYMLTRRV [A6M],1.7

# Variants of: B2
# Assay: as above
# Conditions: c terminus: a fixed tail appended
row,Variant,protein stability index
1,QKNFELAFTMAENLANCERLIEVK [E24K],2.22
2,QKNFELAFTMAENLANCERLIEVN [E24N],2.11
3,QKNFELAFTMAENLANCERLIEVT [E24T],1.95
4,QKNFELAFTMAENLANCERLIEVC [E24C],1.42
5,QKNFELAFTMAENLANCERLIEVR [E24R],2.4
6,QKNFELAFTMAENLANCERLIEVG [E24G],2.13
7,QKNFELAFTMAENLANCERLIEVD [E24D],1.62
8,QKNFELAFTMAENLANCERLIEVS [E24S],1.36
9,QKNFELAFTMAENLANCERLIEVI [E24I],1.03
10,QKNFELAFTMAENLANCERLIEVQ [E24Q],1.33
11,QKNFELAFTMAENLANCERLIEVH [E24H],1.6
12,QKNFELAFTMAENLANCERLIEVY [E24Y],2.13
13,QKNFELAFTMAENLANCERLIEVV [E24V],1.45
14,QKNFELAFTMAENLANCERLIEVP [E24P],2.15
15,QKNFELAFTMAENLANCERLIEVM [E24M],1.89
16,QKNFELAFTMAENLANCERLIEVF [E24F],3.44
17,QKNFELAFTMAENLANCERLIEVL [E24L],1.56
